Measured values from the supplement of paper PMC9112550, “Optimization of the antimicrobial peptide Bac7 by deep mutational scanning” (BMC Biology, 2022).

System: Escherichia coli TOP10
Assay: shrunken log2 fold change of peptide-encoding DNA abundance (4.5 h post-induction vs induction); higher = less antimicrobial activity (less host growth inhibition)
Conditions: time post-induction: 4.5 h; library: site-saturation at positions 5, 18, 19, 20
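Also: peptides expressed intracellularly from a pBAD plasmid library in pooled LB shake-flask culture, induced with 0.3% L-arabinose, DNA abundance read by NGS, three biological replicates, DESeq2 with apeglm shrinkage.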

Q: With RRIRIRPPRLPRPRPRPCFYPRP as the sequence, how does the “shrunken log2 fold change” value read?
A: Its value is -0.694.

Q: RRIRRRPPRLPRPRPRPGTHPRP was tested. Which “shrunken log2 fold change” value did it give?
A: The value was 0.243.

Q: How did the “shrunken log2 fold change” value turn out when RRIRERPPRLPRPRPRPYAIPRP was run?
A: Its value is -0.52.

Q: How did the “shrunken log2 fold change” value turn out when RRIRCRPPRLPRPRPRPLADPRP was run?
A: The value was 0.4.

Q: How did the “shrunken log2 fold change” value turn out when RRIRARPPRLPRPRPRPQNRPRP was run?
A: The value was 0.495.

Q: With RRIRARPPRLPRPRPRPQHYPRP as the sequence, how does the “shrunken log2 fold change” value read?
A: Its value is -0.474.

Q: With RRIRHRPPRLPRPRPRPMWAPRP as the sequence, how does the “shrunken log2 fold change” value read?
A: Its value is -0.0936.

Q: RRIRSRPPRLPRPRPRPLDEPRP was tested. Which “shrunken log2 fold change” value did it give?
A: The value was 0.189.

Q: Which “shrunken log2 fold change” value does the source give for RRIRIRPPRLPRPRPRPKMIPRP here?
A: Its value is -0.379.

Q: For RRIRIRPPRLPRPRPRPTTPPRP, which “shrunken log2 fold change” value is on record?
A: Its value is 0.552.

Q: How did the “shrunken log2 fold change” value turn out when RRIRSRPPRLPRPRPRPEWPPRP was run?
A: The value was 0.112.

Q: RRIRGRPPRLPRPRPRPCRTPRP was tested. Which “shrunken log2 fold change” value did it give?
A: The value was 0.225.

Q: RRIRCRPPRLPRPRPRPCEEPRP was tested. Which “shrunken log2 fold change” value did it give?
A: Its value is 0.207.

Q: RRIRMRPPRLPRPRPRPKPCPRP was tested. Which “shrunken log2 fold change” value did it give?
A: Its value is 0.366.

Q: For RRIRMRPPRLPRPRPRPTVSPRP, which “shrunken log2 fold change” value is on record?
A: Its value is 0.0176.

Q: With RRIRWRPPRLPRPRPRPKNSPRP as the sequence, how does the “shrunken log2 fold change” value read?
A: The value was 0.318.

Q: How did the “shrunken log2 fold change” value turn out when RRIRWRPPRLPRPRPRPAVEPRP was run?
A: Its value is 0.497.

Q: With RRIRLRPPRLPRPRPRPPWRPRP as the sequence, how does the “shrunken log2 fold change” value read?
A: Its value is 0.445.

Q: With RRIRMRPPRLPRPRPRPGLTPRP as the sequence, how does the “shrunken log2 fold change” value read?
A: The value was 1.02.

Q: Which “shrunken log2 fold change” value does the source give for RRIRIRPPRLPRPRPRPGCSPRP here?
A: Its value is -0.391.

Q: RRIRMRPPRLPRPRPRPRPKPRP was tested. Which “shrunken log2 fold change” value did it give?
A: Its value is 1.07.

Q: RRIRLRPPRLPRPRPRPCKHPRP was tested. Which “shrunken log2 fold change” value did it give?
A: Its value is -0.0106.

Q: RRIRWRPPRLPRPRPRPKDEPRP was tested. Which “shrunken log2 fold change” value did it give?
A: Its value is 0.0784.

Q: With RRIRHRPPRLPRPRPRPFKNPRP as the sequence, how does the “shrunken log2 fold change” value read?
A: Its value is -0.0803.

Q: RRIRIRPPRLPRPRPRPGNGPRP was tested. Which “shrunken log2 fold change” value did it give?
A: The value was 0.0389.

Q: For RRIRVRPPRLPRPRPRPPMNPRP, which “shrunken log2 fold change” value is on record?
A: The value was -0.205.

Q: For RRIRHRPPRLPRPRPRPQNVPRP, which “shrunken log2 fold change” value is on record?
A: Its value is -0.0702.

Q: How did the “shrunken log2 fold change” value turn out when RRIRARPPRLPRPRPRPLWLPRP was run?
A: Its value is 0.302.

Q: With RRIRPRPPRLPRPRPRPQDYPRP as the sequence, how does the “shrunken log2 fold change” value read?
A: Its value is -0.0245.

Q: With RRIRNRPPRLPRPRPRPTDPPRP as the sequence, how does the “shrunken log2 fold change” value read?
A: The value was 0.162.

Q: Which “shrunken log2 fold change” value does the source give for RRIRPRPPRLPRPRPRPFFCPRP here?
A: Its value is 0.0262.

Q: Which “shrunken log2 fold change” value does the source give for RRIRVRPPRLPRPRPRPIYWPRP here?
A: Its value is -0.0757.

Q: How did the “shrunken log2 fold change” value turn out when RRIRTRPPRLPRPRPRPPCKPRP was run?
A: Its value is -0.193.

Q: With RRIRWRPPRLPRPRPRPPFYPRP as the sequence, how does the “shrunken log2 fold change” value read?
A: The value was -0.00501.

Q: How did the “shrunken log2 fold change” value turn out when RRIRCRPPRLPRPRPRPYHIPRP was run?
A: The value was -0.27.

Q: How did the “shrunken log2 fold change” value turn out when RRIRMRPPRLPRPRPRPTNPPRP was run?
A: Its value is 0.149.

Q: How did the “shrunken log2 fold change” value turn out when RRIRVRPPRLPRPRPRPHIAPRP was run?
A: Its value is -0.235.

Q: RRIRGRPPRLPRPRPRPINMPRP was tested. Which “shrunken log2 fold change” value did it give?
A: Its value is -0.0846.

Q: How did the “shrunken log2 fold change” value turn out when RRIRPRPPRLPRPRPRPIWQPRP was run?
A: The value was 0.0572.

Q: With RRIRWRPPRLPRPRPRPGMAPRP as the sequence, how does the “shrunken log2 fold change” value read?
A: Its value is 0.627.

Q: For RRIRRRPPRLPRPRPRPMREPRP, which “shrunken log2 fold change” value is on record?
A: The value was 0.0493.

Q: Which “shrunken log2 fold change” value does the source give for RRIRYRPPRLPRPRPRPCTSPRP here?
A: Its value is -0.679.

Q: RRIRTRPPRLPRPRPRPPRTPRP was tested. Which “shrunken log2 fold change” value did it give?
A: The value was 0.281.

Q: RRIRVRPPRLPRPRPRPCLVPRP was tested. Which “shrunken log2 fold change” value did it give?
A: Its value is -0.115.

Q: Which “shrunken log2 fold change” value does the source give for RRIRMRPPRLPRPRPRPCCDPRP here?
A: The value was 0.393.

Q: Which “shrunken log2 fold change” value does the source give for RRIRWRPPRLPRPRPRPHTYPRP here?
A: The value was -0.578.

Q: Which “shrunken log2 fold change” value does the source give for RRIRWRPPRLPRPRPRPGYEPRP here?
A: Its value is 0.00228.

Q: With RRIRSRPPRLPRPRPRPWMQPRP as the sequence, how does the “shrunken log2 fold change” value read?
A: The value was -0.0251.

Q: Which “shrunken log2 fold change” value does the source give for RRIRERPPRLPRPRPRPSGRPRP here?
A: Its value is 0.226.

Q: For RRIRVRPPRLPRPRPRPVGGPRP, which “shrunken log2 fold change” value is on record?
A: The value was 0.306.

Q: With RRIRSRPPRLPRPRPRPLFSPRP as the sequence, how does the “shrunken log2 fold change” value read?
A: Its value is -0.0902.

Q: With RRIRTRPPRLPRPRPRPRVHPRP as the sequence, how does the “shrunken log2 fold change” value read?
A: The value was 0.0778.

Q: How did the “shrunken log2 fold change” value turn out when RRIRYRPPRLPRPRPRPDKAPRP was run?
A: Its value is 0.0133.

Q: Which “shrunken log2 fold change” value does the source give for RRIRQRPPRLPRPRPRPYRIPRP here?
A: Its value is -0.111.

Q: With RRIRCRPPRLPRPRPRPWTPPRP as the sequence, how does the “shrunken log2 fold change” value read?
A: The value was -0.131.

Q: RRIRFRPPRLPRPRPRPVVWPRP was tested. Which “shrunken log2 fold change” value did it give?
A: The value was 0.408.

Q: For RRIRDRPPRLPRPRPRPWCKPRP, which “shrunken log2 fold change” value is on record?
A: Its value is -0.171.

Q: With RRIRFRPPRLPRPRPRPWVSPRP as the sequence, how does the “shrunken log2 fold change” value read?
A: Its value is -0.272.

Q: With RRIRRRPPRLPRPRPRPARIPRP as the sequence, how does the “shrunken log2 fold change” value read?
A: The value was 0.0165.

Q: RRIRLRPPRLPRPRPRPPDQPRP was tested. Which “shrunken log2 fold change” value did it give?
A: The value was 0.349.

Q: With RRIRFRPPRLPRPRPRPRNMPRP as the sequence, how does the “shrunken log2 fold change” value read?
A: Its value is -0.127.

Q: RRIRWRPPRLPRPRPRPRSFPRP was tested. Which “shrunken log2 fold change” value did it give?
A: The value was -0.00655.

Q: RRIRNRPPRLPRPRPRPAKTPRP was tested. Which “shrunken log2 fold change” value did it give?
A: The value was 0.0732.

Q: For RRIRARPPRLPRPRPRPCGTPRP, which “shrunken log2 fold change” value is on record?
A: Its value is 0.475.

Q: With RRIRDRPPRLPRPRPRPVRMPRP as the sequence, how does the “shrunken log2 fold change” value read?
A: Its value is 0.059.

Q: RRIRIRPPRLPRPRPRPVMWPRP was tested. Which “shrunken log2 fold change” value did it give?
A: Its value is -0.0605.

Q: Which “shrunken log2 fold change” value does the source give for RRIRWRPPRLPRPRPRPKELPRP here?
A: The value was 0.501.

Q: Which “shrunken log2 fold change” value does the source give for RRIRFRPPRLPRPRPRPFPNPRP here?
A: Its value is -0.0354.

Q: With RRIRKRPPRLPRPRPRPYEHPRP as the sequence, how does the “shrunken log2 fold change” value read?
A: The value was 0.049.

Q: How did the “shrunken log2 fold change” value turn out when RRIRARPPRLPRPRPRPDRNPRP was run?
A: The value was -0.066.

Q: With RRIRHRPPRLPRPRPRPCMEPRP as the sequence, how does the “shrunken log2 fold change” value read?
A: The value was -0.0962.

Q: How did the “shrunken log2 fold change” value turn out when RRIRNRPPRLPRPRPRPDSTPRP was run?
A: Its value is -0.028.

Q: How did the “shrunken log2 fold change” value turn out when RRIRFRPPRLPRPRPRPHRCPRP was run?
A: Its value is -0.0295.

Q: RRIRWRPPRLPRPRPRPSFEPRP was tested. Which “shrunken log2 fold change” value did it give?
A: The value was -0.0836.

Q: With RRIRPRPPRLPRPRPRPRATPRP as the sequence, how does the “shrunken log2 fold change” value read?
A: The value was 0.261.
